Data published in patent publication US20170088631A1.
pEC50, pKd: −log10 of the molar value. One block for each substance: values may come before it.

How the values were obtained:
[1] = biological target: Carcinoembryonic Antigen (CEA) (human) (UniProt P06731); assay: SPR at 25 C; IL-2 wt
[2] = biological target: Carcinoembryonic Antigen (CEA) (human) (UniProt P06731); assay: SPR at 25 C; IL-2 qm
[3] = biological target: IL-2R βγ heterodimer on cells (NK92 cells; human NK cells and CD8+ T cells) (human) (UniProt P14784); assay: cell-based or functional assay
IL-2R βγ heterodimer on cells (NK92 cells; human NK cells and CD8+ T cells) (human), sequence (P14784 27-551, chain 1 of 2): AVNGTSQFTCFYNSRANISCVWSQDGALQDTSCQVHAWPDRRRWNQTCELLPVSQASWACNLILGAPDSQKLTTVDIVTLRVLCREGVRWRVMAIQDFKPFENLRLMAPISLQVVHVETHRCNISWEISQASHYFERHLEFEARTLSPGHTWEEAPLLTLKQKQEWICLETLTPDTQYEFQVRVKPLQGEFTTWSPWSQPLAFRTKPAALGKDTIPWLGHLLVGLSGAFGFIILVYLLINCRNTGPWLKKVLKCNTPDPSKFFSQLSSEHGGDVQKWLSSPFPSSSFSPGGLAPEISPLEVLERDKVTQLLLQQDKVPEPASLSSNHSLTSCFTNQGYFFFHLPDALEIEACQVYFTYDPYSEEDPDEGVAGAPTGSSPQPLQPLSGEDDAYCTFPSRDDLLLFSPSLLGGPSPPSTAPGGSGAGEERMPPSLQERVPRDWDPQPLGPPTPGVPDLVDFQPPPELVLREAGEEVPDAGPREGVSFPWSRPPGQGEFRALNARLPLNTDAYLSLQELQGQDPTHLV
IL-2R βγ heterodimer on cells (NK92 cells; human NK cells and CD8+ T cells) (human), sequence (P31785 23-369, chain 2 of 2, further chain): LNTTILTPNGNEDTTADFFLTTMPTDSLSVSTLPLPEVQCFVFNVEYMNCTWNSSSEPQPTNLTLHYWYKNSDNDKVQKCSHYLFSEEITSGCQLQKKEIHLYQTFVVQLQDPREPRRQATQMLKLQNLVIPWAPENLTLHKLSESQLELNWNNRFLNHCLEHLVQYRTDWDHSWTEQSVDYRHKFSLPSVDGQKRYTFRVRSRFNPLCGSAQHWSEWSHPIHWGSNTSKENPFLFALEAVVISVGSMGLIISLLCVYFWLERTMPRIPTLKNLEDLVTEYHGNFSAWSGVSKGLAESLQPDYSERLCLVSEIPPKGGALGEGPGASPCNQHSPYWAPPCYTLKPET

[4] = biological target: human IL-2R βγ heterodimer (IL-2R β subunit-Fc(hole) / IL-2R γ subunit-Fc(knob) fusion) (human); assay: SPR, human IL-2R βγ heterodimer immobilized on the chip, construct as analyte, 25 C; apparent KD, 1:1 fit
human IL-2R βγ heterodimer (IL-2R β subunit-Fc(hole) / IL-2R γ subunit-Fc(knob) fusion) (human), sequence (beta, as listed by the source limits assumed, form in doubt, chain 1 of 2): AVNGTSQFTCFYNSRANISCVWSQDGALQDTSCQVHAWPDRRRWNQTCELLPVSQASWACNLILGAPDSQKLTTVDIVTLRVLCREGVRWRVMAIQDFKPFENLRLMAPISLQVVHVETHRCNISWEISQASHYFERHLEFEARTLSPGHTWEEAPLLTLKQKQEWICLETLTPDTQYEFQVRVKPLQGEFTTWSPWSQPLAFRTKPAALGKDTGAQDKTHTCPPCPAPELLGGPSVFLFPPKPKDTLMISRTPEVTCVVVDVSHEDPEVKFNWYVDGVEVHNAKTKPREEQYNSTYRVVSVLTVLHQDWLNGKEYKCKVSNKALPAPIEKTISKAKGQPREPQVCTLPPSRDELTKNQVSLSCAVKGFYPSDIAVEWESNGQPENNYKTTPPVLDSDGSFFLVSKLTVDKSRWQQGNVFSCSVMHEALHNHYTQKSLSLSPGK
human IL-2R βγ heterodimer (IL-2R β subunit-Fc(hole) / IL-2R γ subunit-Fc(knob) fusion) (human), sequence (gamma, as listed by the source limits assumed, form in doubt, chain 2 of 2): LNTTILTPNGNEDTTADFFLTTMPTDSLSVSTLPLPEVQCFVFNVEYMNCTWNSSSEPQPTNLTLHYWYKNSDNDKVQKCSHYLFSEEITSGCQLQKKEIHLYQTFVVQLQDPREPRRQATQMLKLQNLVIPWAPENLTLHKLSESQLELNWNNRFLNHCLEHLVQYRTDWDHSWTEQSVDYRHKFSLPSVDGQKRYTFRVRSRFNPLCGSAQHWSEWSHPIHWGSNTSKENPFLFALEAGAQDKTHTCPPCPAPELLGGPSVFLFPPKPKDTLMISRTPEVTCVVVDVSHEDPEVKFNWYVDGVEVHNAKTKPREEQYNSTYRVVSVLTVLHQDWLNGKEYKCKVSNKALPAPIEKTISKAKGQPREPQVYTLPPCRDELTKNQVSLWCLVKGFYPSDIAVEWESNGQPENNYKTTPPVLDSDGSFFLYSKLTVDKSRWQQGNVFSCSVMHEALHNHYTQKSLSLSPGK

[5] = biological target: human FAP expressed on stably transfected HEK 293 cells (human) (UniProt Q12884); assay: flow cytometry on HEK293 cells stably transfected with human FAP, 4 C, FITC anti-human F(ab')2 detection
[6] = biological target: human Fibroblast Activation Protein (FAP), recombinant (human) (UniProt Q12884); assay: SPR (Biacore), His-tagged human FAP captured by anti-His antibody, construct as analyte, 25 C; apparent bivalent affinity (avidity), 1:1 fit

Carcinoembryonic Antigen (CEA) (human), sequence (P06731 35-685 limits assumed): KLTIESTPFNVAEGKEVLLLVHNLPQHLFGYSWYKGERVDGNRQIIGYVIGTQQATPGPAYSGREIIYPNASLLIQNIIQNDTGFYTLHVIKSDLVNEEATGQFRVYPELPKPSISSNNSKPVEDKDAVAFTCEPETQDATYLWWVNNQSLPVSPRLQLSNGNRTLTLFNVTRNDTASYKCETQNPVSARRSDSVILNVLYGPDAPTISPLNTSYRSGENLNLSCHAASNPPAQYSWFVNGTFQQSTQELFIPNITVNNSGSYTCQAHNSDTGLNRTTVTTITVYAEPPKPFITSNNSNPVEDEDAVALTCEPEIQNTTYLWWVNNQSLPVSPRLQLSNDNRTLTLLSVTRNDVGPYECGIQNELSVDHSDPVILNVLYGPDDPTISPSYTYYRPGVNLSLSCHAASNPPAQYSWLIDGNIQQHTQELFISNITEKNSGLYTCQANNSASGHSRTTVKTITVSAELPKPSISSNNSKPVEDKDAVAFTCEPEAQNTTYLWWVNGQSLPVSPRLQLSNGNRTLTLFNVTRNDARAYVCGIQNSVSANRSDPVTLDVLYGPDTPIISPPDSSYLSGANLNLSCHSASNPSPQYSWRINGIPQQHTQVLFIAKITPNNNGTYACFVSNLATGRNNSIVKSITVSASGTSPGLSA

pKd [1]: 9.33
Substance: CEA-targeted CH1A1A 98/99 2F1-based IgG-IL-2 wt immunoconjugate

pKd [2]: 9.40
Substance: CEA-targeted CH1A1A 98/99 2F1-based IgG-IL-2 qm immunoconjugate

fold decrease in STAT5 phosphorylation in NK cells and CD8+ T cells (FACS); potency relative to Proleukin [3]: < 10 fold | pKd [4]: 8.23 | pEC50 [5]: 9.05 | pKd [6]: 10.00
Substance: FAP-targeted 4G8-based IgG-IL-2 quadruple mutant (qm) immunoconjugate
